Results reported in PMC7642358 (Nature Communications, 2020).
Changes are numbered by the printed parent chain.

B1: Sybody 13 (VHH)
VHH: QVQLVESGGGLVQAGGSLRLSCAASGFPVENYYMRWYRQAPGKEREWVAAIESSGAETRYADSVKGRFTISRDNAKNTVYLQMNSLKPEDTAVYYCYVVVGWGYAGQGTQVTVS
B2: 22 (VHH)
VHH: QVQLVESGGGLVQAGGSLRLSCAASGFPVNHYEMEWYRQAPGREREWVAAIMDSTGYETAYADSVKGRFTISRDNAKNTVYLQMNSLKPEDTAVYYCYVYVGASYIGQGTQVTVS
B3: Sybody 11 (VHH)
VHH: QVQLVESGGGLVQAGGSLRLSCAASGFPVRTENMHWYRQAPGKEREWVAAIYSFGATMLYADSVKGRFTISRDNAKNTVYLQMNSLKPEDTAVYYCAVNVGEWYEGQGTQVTVS
B4: Sybody 9 (VHH)
VHH: QVQLVESGGGLVQAGGSLRLSCAASGFPVGQQHMYWYRQAPGKEREWVAAIYSYGHITKYADSVKGRFTISRDNAKNTVYLQMNSLKPEDTAVYYCWVYVGDYYEGQGTQVTVS
B5: 39 (VHH)
VHH: QVQLVESGGGPVQAGGSLRLSCAASGFPVMWSHMHWYRQAPGKEREWVAAIVSYGAYTIYADSVKGRFTISRDNAKNTVYLQMNSLKPEDTAVYYCNVKDFGGYRYYYDYWGQGTQVTVS
B6: 18 (VHH)
VHH: QVQLVESGGGLVQAGGSLRLSCAASGFPVDYKSMWWYRQAPGKEREWVAAIDSAGDTTTYADSVKGRFTISRDNAKNTVYLQMNSLKPEDTAVYYCTVWVGTTYTGQGTQVTVS
B7: 32 (VHH)
VHH: B6 VHH with D30A, Y31H, D52E, A54T, T59R, T97V, T102E, T103V, T105R
B8: Sybody 1 (VHH)
VHH: QVQLVESGGGLVQAGGSLRLSCAASGFPVNTSEMAWYRQAPGKEREWVAAIESSGDETYYADSVKGRFTISRDNAKNTVYLQMNSLKPEDTAVYYCYVYVGGSYLGQGTQVTVS
B9: 24 (VHH)
VHH: B8 VHH with N30S, S32A, A35E, E52S, D56T, E57W, Y99W, G102S
B10: Sybody 4 (VHH)
VHH: B8 VHH with T31G, S32F, E33N, A35E, E52T, S54E, D56N, E57Y, G102Q, L105I
B11: 30 (VHH)
VHH: B8 VHH with N30W, T31Y, S32K, A35E, E52T, S54A, D56H, E57H, G102E, L105I
B12: Sybody 7 (VHH)
VHH: B8 VHH with T31A, S32E, A35E, E52S, E57W, Y97L, G102S, S103T, L105I
B13: Sybody 16 (VHH)
VHH: B8 VHH with Q13R, N30A, T31S, S32Q, A35T, E52S, D56R, E57Q, Y59E, L105I
B14: 21 (VHH)
VHH: B8 VHH with N30K, T31E, A35T, P41R, E52N, S54H, D56M, E57T, Y59H, L105I
B15: Sybody 14 (VHH)
VHH: B8 VHH with N30A, S32A, A35V, E52M, S54A, D56Q, Y59E, Y99W, G102K, L105I
B16: 28 (VHH)
VHH: B8 VHH with N30Y, T31S, S32A, A35E, E52S, S54Y, D56T, E57N, G102S, L105I
B17: 37 (VHH)
VHH: QVQLVESGGGLVQAGGSLRLSCAASGFPVYNTWMEWYRQAPGKEREWVAAITSYGFHTYYADSVKGRFTISRDNAKNTVYLQMNSLKPEDTAVYYCNVKDEGNTTAYYDYWGQGTQVTVS
B18: 40 (VHH)
VHH: B17 VHH with Y30Q, N31G, Y54V, F56Y, H57R, N103A, T104I, T105A, A106K, Y107N
B19: Sybody 2 (VHH)
VHH: QVQLVESGGGLVQAGGSLRLSCAASGFPVSNEEMTWYRQAPGKEREWVAAIASNGNQTEYADSVKGRFTISRDNAKNTVYLQMNSLKPEDTAVYYCYVYVGASYIGQGTQVTVS
B20: Sybody 10 (VHH)
VHH: B19 VHH with S30E, N31S, E32A, T35E, A52T, N54Q, N56T, Q57I
B21: 31 (VHH)
VHH: B19 VHH with S30W, N31S, E32A, A52N, N54H, N56R, Q57I, S85G, A102K
B22: 27 (VHH)
VHH: B19 VHH with S30K, N31A, E32S, T35V, A52L, N54Q, N56H, Q57A, Y99W, A102R
B23: Sybody 3 (VHH)
VHH: B19 VHH with N31H, E32T, A52E, N54Q, N56V, Q57Y, E59H, E89D, A102G, S103G
B24: 25 (VHH)
VHH: B19 VHH with S30E, N31S, E32T, A52E, N54E, N56H, Q57G, S103G
B25: Sybody 17 (VHH)
VHH: B19 VHH with S30K, N31A, E32S, T35E, N54I, N56Y, Q57N, E59Y, Y97L, S103T
B26: 19 (VHH)
VHH: B19 VHH with S30Y, N54Y, N56R, Q57L, A102Q
B27: Sybody 5 (VHH)
VHH: B19 VHH with S30A, N31Q, E32Q, A52S, N54I, N56S, Q57I, E59H
B28: 36 (VHH)
VHH: QVQLVESGGGLVQAGGSLRLSCAASGFPVEWKHMTWYRQAPGKEREWVAAIASTGAYTHYADSVKGRFTISRDNAKNTVYLQMNSLKPEDTAVYYCNVKDWGSKTTYYDYWGQGTQVTVS
B29: 43 (VHH)
VHH: B28 VHH with K32T, T35H, T54S, H59V, K104Q, T105D, T106R
B30: 41 (VHH)
VHH: B28 VHH with W31H, K32Q, T35H, A52V, A56H, H59I, S103D, K104T, T105S, T106Q
B31: 38 (VHH)
VHH: B28 VHH with E30Y, K32A, A52V, T54S, H59A, W101F, S103T, K104Q, T105E, T106H
B32: 29 (VHH)
VHH: QVQLVESGGGLVQAGGSLRLSCAASGFPVHYTYMRWYRQAPGKEREWVAAIKSYGQHTTYADSVKGRFTISRDNAKNTVYLQMNSLKPEDTAVYYCEVVGETYRGQGTQVTVS
B33: Sybody 15 (VHH)
VHH: QVQLVESGGGLVQAGGSLRLSCAASGFPVYEHYMRWYRQAPGKEREWVAAIQSHGNHTAYADSVKGRFTISRDNAKNTVYLQMNSLKPEDTAVYYCFVVVGNGYTGQGTQVTVS
B34: 35 (VHH)
VHH: QVQLVESGGGLVQAGGSLRLSCAASGFPVNYTIMFWYRQAPGKEREWVAAIKSTGEHTLYADSVKGRFTISRDNAKNTVYLQMNSLKPEDTAVYYCNVKDAGQGWQEYDYWGQGTQVTVS
B35: 33 (VHH)
VHH: QVQLVESGGGLVQAGGSLRLSCAASGFPVKTAEMEWYRQAPGKEREWVAAISSTGKSTFYADSVKGRFTISRDNAKNTVYLQMNSLKPEDTAVYYCHVYVGRTYIGQGTQVTVS
B36: Sybody 8 (VHH)
VHH: QVQLVESGGGLVQAGGSLRLSCAASGFPVKSYEMEWYRQAPGKEREWVAAISSYGEYTEYADSVKGRFTISRDNAKNTVYLQMNSLKPEDTAVYYCYVWVGDSYLGQGTQVTVS
B37: Sybody 6 (VHH)
VHH: QVQLVESGGGLVQAGGSLRLSCAASGFPVNHTRMYWYRQAPGKEREWVAAIQSHGQNTFYADSVKGRFTISRDNAKNTVYLQMNSLKPEDTAVYYCYVWVGNQYWGQGTQVTVS

biological target: SARS-CoV-2 spike receptor-binding domain (2019-nCoV RBD-SD1, residues 319–566) (SARS-CoV-2, UniProt P0DTC2)

Question: Does B1 bind?
Answer: Result: binds

Question: Does B2 bind?
Answer: Result: binds

Question: Does B3 bind?
Answer: Result: binds

Question: Does B4 bind?
Answer: Result: binds

Question: Does B5 bind?
Answer: Result: binds

Question: Does B6 bind?
Answer: Result: binds

Question: Does B7 bind?
Answer: Result: binds

Question: Does B8 bind?
Answer: Result: binds

Question: Does B9 bind?
Answer: Result: binds

Question: Does B10 bind?
Answer: Result: binds

Question: Does B11 bind?
Answer: Result: binds

Question: Does B12 bind?
Answer: Result: binds

Question: Does B13 bind?
Answer: Result: binds

Question: Does B14 bind?
Answer: Result: binds

Question: Does B15 bind?
Answer: Result: binds

Question: Does B16 bind?
Answer: Result: binds

Question: Does B17 bind?
Answer: Result: binds

Question: Does B18 bind?
Answer: Result: binds

Question: Does B19 bind?
Answer: Result: binds

Question: Does B20 bind?
Answer: Result: binds

Question: Does B21 bind?
Answer: Result: binds

Question: Does B22 bind?
Answer: Result: binds

Question: Does B23 bind?
Answer: Result: binds

Question: Does B24 bind?
Answer: Result: binds

Question: Does B25 bind?
Answer: Result: binds

Question: Does B26 bind?
Answer: Result: binds

Question: Does B27 bind?
Answer: Result: binds

Question: Does B28 bind?
Answer: Result: binds

Question: Does B29 bind?
Answer: Result: binds

Question: Does B30 bind?
Answer: Result: binds

Question: Does B31 bind?
Answer: Result: binds

Question: Does B32 bind?
Answer: Result: binds

Question: Does B33 bind?
Answer: Result: binds

Question: Does B34 bind?
Answer: Result: binds

Question: Does B35 bind?
Answer: Result: binds

Question: Does B36 bind?
Answer: Result: binds

Question: Does B37 bind?
Answer: Result: binds
